Biological target: Bmh1 (UniProt P29311)
Experiment: Strep-Bmh1 pull-down, stained SDS-PAGE
Conditions: reference: unmodified Hst2

| Substance | binding against the reference (sites S320) | binding against the reference (sites S324) |
| --- | --- | --- |
| Hst2 (from UniProt P53686) Hst2 S320ph | gained | – |
| Hst2 (from UniProt P53686) Hst2 S324ph | – | gained |

Source: PMC7948448
